Data reported in patent US20160207996A1 (ARGEN X N V, published 2016).
Residue numbers refer to the chain shown, from its start.

Key:
[1] = molecular target: human Nav1.7 (full length) (human) (UniProt Q15858); experiment: cell-based or functional assay
[2] = molecular target: T1, hNav1.7-loopA3-llama Fc fusion (human); experiment: ELISA, coated loopA3-llama Fc 10 ng/well, mAb titrated
T1 construct: also called hNav1.7-loopA3-llFc; loopA3-llamaFc chimera
T1 chain: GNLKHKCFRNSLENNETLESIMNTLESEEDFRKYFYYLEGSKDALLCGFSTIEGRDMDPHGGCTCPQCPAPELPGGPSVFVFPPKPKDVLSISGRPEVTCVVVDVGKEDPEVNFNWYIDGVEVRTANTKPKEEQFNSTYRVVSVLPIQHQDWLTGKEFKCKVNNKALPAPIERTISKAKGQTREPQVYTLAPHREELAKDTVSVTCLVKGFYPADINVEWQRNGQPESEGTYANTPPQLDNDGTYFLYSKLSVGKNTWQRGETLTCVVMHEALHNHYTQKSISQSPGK
Description: In a next experiment, the binding affinity of the loop-specific mAbs was determined and compared to reference mAbs as described in US2011/0135662 (for loop A3: UCB_932, for loopB1-C1-D1: UCB_983, for loopC3: UCB_1066; US2011/0135662). Affinities were determined using an ELISA with a loop-coating of 10 ng/well (loopA3-llama Fc), 20 ng/well (loop-B1-C1-D1-llama Fc) or 50 ng/well (loopC3-llama Fc). The remainder of the experimental setup was identical to abovementioned binding ELISAs. Most of the mAbs show pM affinity for the respective hNav1.7 extracellular loop they are binding. […] The EC₅₀ for the reference mAbs could not be determined (nd) from the ELISA data available because the binding was too weak.

hNav1.5-loopA3-llFc = molecular target: T2, hNav1.5-loopA3-llFc (human); experiment: binding ELISA on coated hNav1.5 loop A3-llama Fc, OD620
T2 construct: also called Nav1.5 extracellular loop A3 llamaFc chimera
T2 chain: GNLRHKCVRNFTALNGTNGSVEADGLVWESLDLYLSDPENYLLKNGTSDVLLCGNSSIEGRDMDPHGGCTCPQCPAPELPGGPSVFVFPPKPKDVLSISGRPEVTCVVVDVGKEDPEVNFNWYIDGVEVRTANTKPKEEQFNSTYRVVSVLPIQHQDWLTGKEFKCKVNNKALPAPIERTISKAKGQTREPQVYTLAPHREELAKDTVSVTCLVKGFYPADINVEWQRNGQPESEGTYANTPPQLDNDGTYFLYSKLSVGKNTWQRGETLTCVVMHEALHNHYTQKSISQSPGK
Text: (§1) The therapeutic potency of an anti-hNav1.7 antibody will highly depend on the lack of binding to other Nay family members. Of particular interest is hNav1.5, which is expressed on cardiac muscle cells. As such, cross-reactive binding of hNav1.7 antibodies to hNav1.5 could lead to heart failure. To assay the specificity of the mAbs derived from DNA immunization for hNav1.7, the corresponding loopA3 and loopB1-C1-D1 sequences of hNav1.5 were cloned as llamaFc chimera and cross-reactivity was determined using a binding ELISA (FIG. 8). All clones, except clone 9A6 and 9H4, show no cross-reactivity to hNav1.5. In addition, cross reactivity for hNav1.2 was tested for the loopA3-binding clones 8A7 and 8B6 using hNav1.2 and hNav1.7 derived monomeric, GST-tagged loopA3 peptides (Abnova, H00006326-Q01 (hNav1.2) and H00006335-Q01 (hNav1.7)). Again, no cross-reactive binding was observed.

ratA3-llFc = molecular target: T3, ratA3-llFc (rat); experiment: binding ELISA on coated rat Nav1.7 loop A3-llama Fc, OD620
T3 construct: also called rat Nav1.7 loopA3 llamaFc chimera
T3 chain: T1 chain with N10K, S11E, N14E, L25A, D30E, F31L, R32K

[3] = molecular target: T4, GST-tagged hNav1.2-loopA3 (human, UniProt Q99250 273-362); experiment: binding ELISA on coated GST-tagged hNav1.2 loop A3 peptide, OD620
T4 construct: bought (Abnova); monomeric; also called hNav1.2 derived monomeric GST-tagged loopA3 peptide; Abnova H00006326-Q01; not shown: GST tag
Text: as §1

[4] = molecular target: T5, GST-tagged hNav1.7-loopA3 (human, UniProt Q15858 269-339); experiment: binding ELISA on coated GST-tagged hNav1.7 loop A3 peptide, OD620
T5 construct: monomeric GST-tagged peptide; also called hNav1.7-loopA3-GST; Nav1.7-loopA3-GST; not shown: GST tag
Text: as §1

[5] = molecular target: T6, hNav1.7-loopB1-C1-D1-llama Fc (human); experiment: binding ELISA on coated loop-llama Fc chimera (20 ng/well), OD620
T6 construct: whole entry: loops B1, C1, D1 joined by linkers, llama Fc; also called hNav1.7-loopB1-C1-D1-llfc
T6 chain: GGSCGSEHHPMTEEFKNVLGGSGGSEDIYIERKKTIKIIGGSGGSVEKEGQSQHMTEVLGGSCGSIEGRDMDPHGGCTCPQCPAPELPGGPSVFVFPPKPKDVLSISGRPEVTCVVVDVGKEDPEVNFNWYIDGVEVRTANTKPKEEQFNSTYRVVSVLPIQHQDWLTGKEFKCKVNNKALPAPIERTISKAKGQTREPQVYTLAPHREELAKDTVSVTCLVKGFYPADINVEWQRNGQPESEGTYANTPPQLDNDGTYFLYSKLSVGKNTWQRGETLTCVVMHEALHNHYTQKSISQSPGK
Description: For all DNA-immunization derived mAbs the binding affinity for the various hNav1.7-loop-llama Fc chimeras was tested in a binding ELISA. Therefore, a Maxisorp plate (Nunc) was coated with 20 ng/well of hNav1.7-loopA3-llama Fc, hNav1.7-loopB1-C1-D1-llama Fc or hNav1.7-loopC3-llama Fc. Remainder of the ELISA setup is as described above. […] Only at very high concentration minor cross-reactivity is observed for some clones.

[6] = molecular target: T1, hNav1.7-loopA3-llama Fc fusion; experiment: binding ELISA of mAb 8A7 on coated loop A3-llama Fc chimeras, OD450
mouse A3-llamaFc = molecular target: T7, mouse A3-llamaFc (mouse, UniProt Q62205 269-319); experiment: as above
T7 construct: also called wild-type mouse A3 loop; not shown: linker and llama Fc of the A3-llamaFc construct
T7 sequence: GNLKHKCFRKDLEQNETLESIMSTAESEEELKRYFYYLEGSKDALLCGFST

Mouse A3 mut1 = molecular target: T8, Mouse A3 mut1 (mouse-human chimera, UniProt Q62205 269-319); experiment: as above
T8 construct: also called mouse A3 mut1 loop; not shown: linker and llama Fc of the A3-llamaFc construct

T4 sequence (Q99250 273-362 limits assumed): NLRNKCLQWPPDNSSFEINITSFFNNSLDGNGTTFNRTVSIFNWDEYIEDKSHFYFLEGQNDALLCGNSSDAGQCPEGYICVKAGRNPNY

B1: 8B6 (antibody, human IgG1, V domains shown)
VH: EVQLQESGPGLVKPSQTLSLTCTVSGGSISTSGTGWSWIRQPPGKGLEWMGIIGYDGGTYYNPSLKSRTSISRDTSKNQFSLQLTSVTPEDTAVYYCARGLGPWGQGIQVTVSS
VL: DIQMTQSPSSLSASLGDRVTITCQASQGISKYLAWYQQKPGQAPKLLIYSASRLETGVPSRFSGSGSGTTFTLVISGLEAEDAGSYYCQQYYRAPATFGQGTKVELK
% inhibition of inward current following P02 voltage protocol, 10 µg/ml [1]: 30.2%
% inhibition of inward current following P02 voltage protocol, 25 µg/ml [1]: 58.4%
% inhibition of inward current following P02 voltage protocol, 100 µg/ml [1]: 72.2%
EC50 [2]: 0.37 nM
binding result (hNav1.5-loopA3-llFc): no binding (tested: about 66 ng/ml (axis as labelled))
EC50 (read off the curve) (ratA3-llFc): ~0.6 nM
binding result [3]: no binding (tested: about 130 nM)
EC50 (read off the curve) [4]: ~0.5 nM
binding result [5]: no binding (tested: about 66 nM)

B2: 8A7 (antibody, human IgG1, V domains shown)
VH: EVQVQESGPGLVTPSQTLSLTCTVSGGSIKNNYYYWNWIRQPPGKGLEWMGAIAYSGSTYYSPSLQSRTSISRDTSKNQFTLQLSSVTPEDTAVYYCARVPSVFGLPYGGMNYWGKGTLVTVSS
VL: SYELTQSPSVTVALRQTAKITCGGSRIGSKSVQWYQQKPGQVPVLVIYADNRRPSRIPERFSGSNSGNTATLIISGAQAEDEADYYCQVWDSSAAVFGGGTHLTVLG
notes: also called mAb 8A7
% inhibition of inward current following P02 voltage protocol, 10 µg/ml [1]: 4%
% inhibition of inward current following P02 voltage protocol, 25 µg/ml [1]: 33.3%
% inhibition of inward current following P02 voltage protocol, 100 µg/ml [1]: 47.6%
EC50 [2]: 0.23 nM
binding result (hNav1.5-loopA3-llFc): no binding (tested: about 66 ng/ml (axis as labelled))
binding result [3]: no binding (tested: about 130 nM)
EC50 (read off the curve) [6]: ~0.08 nM
binding result (mouse A3-llamaFc): no binding (tested: about 33 nM)
binding result (Mouse A3 mut1): no binding (tested: about 33 nM)
